Laboratory results taken from paper doi:10.1101/2020.09.01.277863.

Biological target: HalM2, class II lanthipeptide synthetase (wild type) (Bacillus halodurans)
Test: native MS

Kd: 2400 nM
stoichiometry N: 1
Substance: HalA2 precursor peptide (full-length)
